# Reference: patent US20240261333A1 (published 2024)
# T1: CCT3 (human, UniProt P49368 1-545)
# T1 construct: also called NP_005989.3
# T1 sequence (looked up): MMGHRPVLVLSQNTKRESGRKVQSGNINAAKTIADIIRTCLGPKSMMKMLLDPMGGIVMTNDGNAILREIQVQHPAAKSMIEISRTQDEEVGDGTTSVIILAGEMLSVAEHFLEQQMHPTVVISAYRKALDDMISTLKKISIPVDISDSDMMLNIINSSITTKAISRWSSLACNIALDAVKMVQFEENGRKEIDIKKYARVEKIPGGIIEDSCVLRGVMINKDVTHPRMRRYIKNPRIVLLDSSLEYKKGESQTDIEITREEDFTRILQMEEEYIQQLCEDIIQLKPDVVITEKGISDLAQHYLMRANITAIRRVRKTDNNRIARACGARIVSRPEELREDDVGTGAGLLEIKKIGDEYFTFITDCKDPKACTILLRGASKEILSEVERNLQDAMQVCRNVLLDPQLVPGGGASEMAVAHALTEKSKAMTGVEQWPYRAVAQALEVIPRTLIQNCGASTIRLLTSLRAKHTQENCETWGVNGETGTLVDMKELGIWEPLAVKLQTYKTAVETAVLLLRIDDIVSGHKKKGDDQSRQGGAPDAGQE
# T2: HNRNPM (human, UniProt P52272 2-730)
# T2 construct: also called NP_005959.2 (+1)
# T2 sequence (looked up): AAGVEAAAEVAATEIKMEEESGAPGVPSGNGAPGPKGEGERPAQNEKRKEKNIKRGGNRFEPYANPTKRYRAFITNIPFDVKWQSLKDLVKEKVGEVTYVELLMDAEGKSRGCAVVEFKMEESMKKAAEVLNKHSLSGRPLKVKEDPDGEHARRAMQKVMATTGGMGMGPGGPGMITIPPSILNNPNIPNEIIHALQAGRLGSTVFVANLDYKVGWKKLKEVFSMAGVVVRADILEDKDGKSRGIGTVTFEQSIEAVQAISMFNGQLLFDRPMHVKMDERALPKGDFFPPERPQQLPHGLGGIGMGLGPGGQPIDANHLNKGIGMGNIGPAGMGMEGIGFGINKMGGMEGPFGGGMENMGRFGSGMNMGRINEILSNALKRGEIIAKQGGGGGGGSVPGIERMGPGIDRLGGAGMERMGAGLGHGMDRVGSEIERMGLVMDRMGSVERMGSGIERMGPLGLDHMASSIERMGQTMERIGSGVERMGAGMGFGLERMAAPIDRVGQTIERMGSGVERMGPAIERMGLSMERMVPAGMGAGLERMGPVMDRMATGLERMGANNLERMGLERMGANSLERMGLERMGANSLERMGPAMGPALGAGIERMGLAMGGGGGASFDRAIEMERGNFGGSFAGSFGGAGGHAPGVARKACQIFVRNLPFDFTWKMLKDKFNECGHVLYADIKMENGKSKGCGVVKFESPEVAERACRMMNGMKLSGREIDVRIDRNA
# T3: PURA (human, UniProt Q00577 2-322)
# T3 construct: also called NP_005850.1
# T3 sequence (looked up): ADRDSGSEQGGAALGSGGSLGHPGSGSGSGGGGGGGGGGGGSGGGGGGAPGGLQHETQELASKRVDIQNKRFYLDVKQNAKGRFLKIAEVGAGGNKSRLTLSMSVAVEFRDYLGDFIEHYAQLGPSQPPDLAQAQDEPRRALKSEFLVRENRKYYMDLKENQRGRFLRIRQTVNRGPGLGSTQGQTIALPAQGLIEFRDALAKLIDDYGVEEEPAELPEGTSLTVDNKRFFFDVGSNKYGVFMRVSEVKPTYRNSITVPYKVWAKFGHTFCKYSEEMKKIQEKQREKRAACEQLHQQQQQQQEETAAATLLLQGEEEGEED
# What was measured:
# Assay in all cases: co-IP with anti-FLAG, N-FLAG B3GNT2, mass spectrometry
# CCT3 = biological target: T1, CCT3
# RPS14 = RPS14 (human, UniProt P62263 2-151)
# HNRNPM = biological target: T2, HNRNPM
# YBX1 = biological target: T4, YBX1 (human, UniProt P67809 2-324)
# T4 construct: also called NP_004550.2
# T4 sequence (P67809 2-324 limits assumed): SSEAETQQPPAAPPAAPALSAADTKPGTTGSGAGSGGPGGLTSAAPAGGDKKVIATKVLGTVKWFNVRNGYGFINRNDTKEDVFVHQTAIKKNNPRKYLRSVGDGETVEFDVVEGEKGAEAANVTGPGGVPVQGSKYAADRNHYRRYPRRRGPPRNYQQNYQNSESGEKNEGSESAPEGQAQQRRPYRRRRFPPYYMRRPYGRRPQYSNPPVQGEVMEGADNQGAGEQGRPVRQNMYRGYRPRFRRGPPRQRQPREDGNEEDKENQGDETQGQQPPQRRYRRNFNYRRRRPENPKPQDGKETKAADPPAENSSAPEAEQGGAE
# TPM3 = biological target: T5, TPM3 (human, UniProt P06753-2 2-248)
# T5 construct: also called NP_705935.1
# T5 sequence (P06753 other isoform, or with tags, fused parts or gaps limits assumed): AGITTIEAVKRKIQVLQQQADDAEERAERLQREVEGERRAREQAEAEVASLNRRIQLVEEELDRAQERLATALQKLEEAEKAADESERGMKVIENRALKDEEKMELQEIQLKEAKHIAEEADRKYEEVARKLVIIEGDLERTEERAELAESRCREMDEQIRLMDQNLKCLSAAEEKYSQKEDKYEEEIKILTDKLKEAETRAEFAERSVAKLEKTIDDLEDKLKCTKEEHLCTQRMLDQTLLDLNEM
# FLG = biological target: T6, FLG (human, UniProt P20930 1-4061, limits assumed)
# T6 construct: also called NP_002007.1
# T6 sequence (P20930 whole entry): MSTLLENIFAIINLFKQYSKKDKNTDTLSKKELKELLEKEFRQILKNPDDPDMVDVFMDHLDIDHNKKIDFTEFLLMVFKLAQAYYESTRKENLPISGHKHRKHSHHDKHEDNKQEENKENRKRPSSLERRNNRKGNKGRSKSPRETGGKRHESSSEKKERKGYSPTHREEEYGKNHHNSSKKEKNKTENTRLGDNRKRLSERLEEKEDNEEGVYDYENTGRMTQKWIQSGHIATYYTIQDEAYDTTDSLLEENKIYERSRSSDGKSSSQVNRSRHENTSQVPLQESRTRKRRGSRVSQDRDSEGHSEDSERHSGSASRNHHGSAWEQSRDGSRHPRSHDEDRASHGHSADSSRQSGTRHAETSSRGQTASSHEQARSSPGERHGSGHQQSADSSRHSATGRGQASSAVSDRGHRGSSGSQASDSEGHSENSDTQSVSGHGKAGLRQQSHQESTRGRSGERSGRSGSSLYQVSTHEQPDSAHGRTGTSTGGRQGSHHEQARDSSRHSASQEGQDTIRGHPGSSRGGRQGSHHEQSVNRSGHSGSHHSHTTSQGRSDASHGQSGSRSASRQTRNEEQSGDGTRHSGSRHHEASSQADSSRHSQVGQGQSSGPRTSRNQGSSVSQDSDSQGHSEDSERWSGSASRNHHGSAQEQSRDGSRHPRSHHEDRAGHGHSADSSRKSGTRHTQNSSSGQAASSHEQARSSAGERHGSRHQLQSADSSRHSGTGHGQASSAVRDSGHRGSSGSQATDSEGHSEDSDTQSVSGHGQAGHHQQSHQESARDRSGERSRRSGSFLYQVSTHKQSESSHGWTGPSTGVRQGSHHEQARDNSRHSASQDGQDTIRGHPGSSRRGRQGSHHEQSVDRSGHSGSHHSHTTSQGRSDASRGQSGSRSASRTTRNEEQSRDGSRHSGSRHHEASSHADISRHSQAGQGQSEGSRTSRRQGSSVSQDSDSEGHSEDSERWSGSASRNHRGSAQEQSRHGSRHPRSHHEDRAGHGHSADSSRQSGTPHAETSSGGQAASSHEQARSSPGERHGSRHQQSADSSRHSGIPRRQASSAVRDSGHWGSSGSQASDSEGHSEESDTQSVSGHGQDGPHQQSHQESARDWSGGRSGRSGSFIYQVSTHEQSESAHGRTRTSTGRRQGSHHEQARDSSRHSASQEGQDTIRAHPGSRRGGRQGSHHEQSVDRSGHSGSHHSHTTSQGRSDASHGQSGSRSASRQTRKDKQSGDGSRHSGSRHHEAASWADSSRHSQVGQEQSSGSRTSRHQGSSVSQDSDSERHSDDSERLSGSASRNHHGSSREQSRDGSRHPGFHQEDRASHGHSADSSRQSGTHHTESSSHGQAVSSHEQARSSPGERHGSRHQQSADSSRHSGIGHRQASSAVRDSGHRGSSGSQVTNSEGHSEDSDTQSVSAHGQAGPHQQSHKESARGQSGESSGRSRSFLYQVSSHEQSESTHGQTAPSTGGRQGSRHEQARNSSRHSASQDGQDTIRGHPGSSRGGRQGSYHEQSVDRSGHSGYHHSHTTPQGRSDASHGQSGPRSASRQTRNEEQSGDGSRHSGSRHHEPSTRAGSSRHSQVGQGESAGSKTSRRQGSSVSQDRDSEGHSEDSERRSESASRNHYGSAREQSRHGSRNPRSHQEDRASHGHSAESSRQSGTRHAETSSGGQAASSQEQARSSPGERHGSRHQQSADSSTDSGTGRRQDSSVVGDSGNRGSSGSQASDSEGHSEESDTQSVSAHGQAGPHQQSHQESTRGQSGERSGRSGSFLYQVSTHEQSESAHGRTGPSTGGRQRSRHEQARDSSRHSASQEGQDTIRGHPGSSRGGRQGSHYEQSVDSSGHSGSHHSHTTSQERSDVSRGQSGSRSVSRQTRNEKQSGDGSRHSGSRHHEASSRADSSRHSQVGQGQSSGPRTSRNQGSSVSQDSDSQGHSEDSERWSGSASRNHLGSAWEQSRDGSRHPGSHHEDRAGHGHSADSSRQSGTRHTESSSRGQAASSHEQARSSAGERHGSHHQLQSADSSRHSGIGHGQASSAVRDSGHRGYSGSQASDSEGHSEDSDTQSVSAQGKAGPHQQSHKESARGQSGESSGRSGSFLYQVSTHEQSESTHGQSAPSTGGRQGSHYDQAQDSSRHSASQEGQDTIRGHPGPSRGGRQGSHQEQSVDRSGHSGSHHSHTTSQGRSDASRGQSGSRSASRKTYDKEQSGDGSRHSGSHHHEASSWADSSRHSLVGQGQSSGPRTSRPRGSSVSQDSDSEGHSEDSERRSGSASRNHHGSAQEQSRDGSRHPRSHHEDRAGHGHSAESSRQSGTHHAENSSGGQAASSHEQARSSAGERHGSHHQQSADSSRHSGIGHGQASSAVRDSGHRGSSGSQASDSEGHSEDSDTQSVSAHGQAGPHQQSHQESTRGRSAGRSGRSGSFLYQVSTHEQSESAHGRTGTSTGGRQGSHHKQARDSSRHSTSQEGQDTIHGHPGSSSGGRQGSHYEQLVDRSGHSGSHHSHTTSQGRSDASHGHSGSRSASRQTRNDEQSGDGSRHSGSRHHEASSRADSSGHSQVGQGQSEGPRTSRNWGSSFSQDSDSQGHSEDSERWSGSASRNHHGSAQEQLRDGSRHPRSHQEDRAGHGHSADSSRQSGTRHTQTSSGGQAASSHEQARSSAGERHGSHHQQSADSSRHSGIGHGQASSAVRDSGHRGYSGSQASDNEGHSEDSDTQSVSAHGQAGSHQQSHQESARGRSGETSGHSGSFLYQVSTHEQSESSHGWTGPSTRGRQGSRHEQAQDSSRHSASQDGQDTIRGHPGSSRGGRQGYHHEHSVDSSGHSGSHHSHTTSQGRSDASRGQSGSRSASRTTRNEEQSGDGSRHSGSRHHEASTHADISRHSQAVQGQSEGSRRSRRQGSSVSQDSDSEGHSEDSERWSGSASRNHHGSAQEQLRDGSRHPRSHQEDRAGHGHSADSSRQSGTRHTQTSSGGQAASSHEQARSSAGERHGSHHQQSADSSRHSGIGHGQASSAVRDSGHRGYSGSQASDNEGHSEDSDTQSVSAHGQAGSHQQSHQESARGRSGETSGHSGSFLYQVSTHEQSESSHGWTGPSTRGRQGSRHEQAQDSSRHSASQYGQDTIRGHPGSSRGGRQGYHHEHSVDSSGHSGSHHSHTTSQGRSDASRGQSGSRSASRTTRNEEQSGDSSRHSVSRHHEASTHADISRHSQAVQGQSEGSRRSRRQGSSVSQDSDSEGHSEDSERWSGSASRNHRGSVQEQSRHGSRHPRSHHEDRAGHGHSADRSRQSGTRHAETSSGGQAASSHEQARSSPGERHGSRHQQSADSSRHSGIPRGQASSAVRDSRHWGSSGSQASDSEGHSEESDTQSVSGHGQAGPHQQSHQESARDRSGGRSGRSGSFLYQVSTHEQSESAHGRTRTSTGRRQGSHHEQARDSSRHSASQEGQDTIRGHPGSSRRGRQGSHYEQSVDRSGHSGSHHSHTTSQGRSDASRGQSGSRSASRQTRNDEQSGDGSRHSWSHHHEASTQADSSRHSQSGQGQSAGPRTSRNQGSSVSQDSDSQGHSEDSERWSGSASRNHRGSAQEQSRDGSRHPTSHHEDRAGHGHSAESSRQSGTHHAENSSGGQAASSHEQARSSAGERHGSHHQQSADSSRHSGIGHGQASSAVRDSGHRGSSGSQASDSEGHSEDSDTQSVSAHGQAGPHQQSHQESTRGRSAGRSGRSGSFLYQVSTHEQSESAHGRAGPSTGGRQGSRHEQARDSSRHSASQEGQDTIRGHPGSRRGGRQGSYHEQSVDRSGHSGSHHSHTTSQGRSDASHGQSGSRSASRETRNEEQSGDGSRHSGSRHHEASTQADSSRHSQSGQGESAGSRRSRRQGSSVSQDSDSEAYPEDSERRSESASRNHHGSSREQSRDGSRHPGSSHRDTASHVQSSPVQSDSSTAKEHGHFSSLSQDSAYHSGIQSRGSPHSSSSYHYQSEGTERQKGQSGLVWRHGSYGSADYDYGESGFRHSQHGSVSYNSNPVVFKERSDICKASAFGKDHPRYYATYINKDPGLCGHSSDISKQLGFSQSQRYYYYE
# PURA = biological target: T3, PURA
Binder,co-IP mass spectrometry count (CCT3),co-IP mass spectrometry count (RPS14),co-IP mass spectrometry count (HNRNPM),co-IP mass spectrometry count (YBX1),co-IP mass spectrometry count (TPM3),co-IP mass spectrometry count (FLG),"co-IP/MS count, N-term FLAG (PURA)"
"N-terminal FLAG tagged B3GNT2 (enzyme, human, UniProt Q9NY97 1-397, looked up, FLAG-tagged ORF overexpressed in cells; pulled down from lysate with mouse anti-FLAG; also called N-FLAG B3GNT2; N-term FLAG; not shown: N-terminal FLAG tag) MSVGRRRIKLLGILMMANVFIYFIMEVSKSSSQEKNGKGEVIIPKEKFWKISTPPEAYWNREQEKLNRQYNPILSMLTNQTGEAGRLSNISHLNYCEPDLRVTSVVTGFNNLPDRFKDFLLYLRCRNYSLLIDQPDKCAKKPFLLLAIKSLTPHFARRQAIRESWGQESNAGNQTVVRVFLLGQTPPEDNHPDLSDMLKFESEKHQDILMWNYRDTFFNLSLKEVLFLRWVSTSCPDTEFVFKGDDDVFVNTHHILNYLNSLSKTKAKDLFIGDVIHNAGPHRDKKLKYYIPEVVYSGLYPPYAGGGGFLYSGHLALRLYHITDQVHLYPIDDVYTGMCLQKLGLVPEKHKGFRTFDIEEKNKNNICSYVDLMLVHSRKPQEMIDIWSQLQSAHLKC",0,11,6,2,6,29,
"N-terminal FLAG tagged B3GNT2 (enzyme, human, UniProt Q9NY97 1-397, looked up, FLAG-tagged ORF overexpressed in A375 cells; pulled down from the lysate with mouse anti-FLAG; also called N-FLAG B3GNT2; N-term FLAG; not shown: N-terminal FLAG tag) MSVGRRRIKLLGILMMANVFIYFIMEVSKSSSQEKNGKGEVIIPKEKFWKISTPPEAYWNREQEKLNRQYNPILSMLTNQTGEAGRLSNISHLNYCEPDLRVTSVVTGFNNLPDRFKDFLLYLRCRNYSLLIDQPDKCAKKPFLLLAIKSLTPHFARRQAIRESWGQESNAGNQTVVRVFLLGQTPPEDNHPDLSDMLKFESEKHQDILMWNYRDTFFNLSLKEVLFLRWVSTSCPDTEFVFKGDDDVFVNTHHILNYLNSLSKTKAKDLFIGDVIHNAGPHRDKKLKYYIPEVVYSGLYPPYAGGGGFLYSGHLALRLYHITDQVHLYPIDDVYTGMCLQKLGLVPEKHKGFRTFDIEEKNKNNICSYVDLMLVHSRKPQEMIDIWSQLQSAHLKC",,,,,,,0
